# Measured values reported in the supplement of paper PMC10724198.
# ± gives the standard deviation of the averaged measurements.
# Test system: Saccharomyces cerevisiae
# Test: protein stability index of tFT-peptide fusion (C-terminal peptide) (PSI (0-1 scale)); higher = more stable (slower turnover)
# Conditions: genetic background: wild type; temperature: 30 C
# Method: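 Multiplexed protein stability (MPS) profiling in S. cerevisiae. Random 12-aa peptides (tFT-X12 library) are fused to the C-terminus of a sfGFP-mCherry tandem fluorescent timer, after mCherry and a GGGS linker. Cells are FACS-sorted into 8 mCherry/sfGFP bins and deep-sequenced. The protein stability index (PSI) is the read-weighted bin average, scaled from 0 (unstable) to 1 (stable). Only peptides with >10 reads are reported; cells were grown at 30 °C in SC-His with glucose.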
# 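Also: PSI is a weighted mean of sequencing reads over stability bins, variants kept only with over 10 reads, mCherry proximal and sfGFP distal, peptide attached via GGGS linker.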
row,Sequence,protein stability index
1,ETSRTYGNFPIT,0.774 ± 0.11
2,EVCTFPGSIRSS,0.521 ± 0.023
3,EVGHLILYKIGC,0.648 ± 0.017
4,EVGLGAAGLSGP,0.749 ± 0.031
5,EVGVRCRVGVWV,0.567 ± 0.029
6,EVIRFMEKLPFR,0.589 ± 0.025
7,EVYTWTGNMWNI,0.673 ± 0.095
8,EWGAGGGVWGLG,0.7684 ± 0.0069
9,EWMIHQFCRVPV,0.62 ± 0.0097
10,EWVTRQFEGWEG,0.7474 ± 0.0021
11,EYFLGPLVRLGR,0.762 ± 0.11
12,EYRTAIYFQSLL,0.701 ± 0.076
13,FAALACKSRLEF,0.685 ± 0.03
14,FAFQAHWGCRDF,0.703 ± 0.053
15,FAHSPPPHLSVR,0.624 ± 0.014
16,FAISPCVSLAFF,0.642 ± 0.05
17,FALSSLTFPLPT,0.744 ± 0.094
18,FALWAGGTWFRT,0.656 ± 0.013
19,FARLTSSQGGKD,0.68 ± 0.025
20,FAVLGGGGGGGW,0.711 ± 0.0097
21,FCAVRYLVEGRV,0.533 ± 0.0064
22,FCIDSLNSFCFV,0.643 ± 0.057
23,FCLSIFYRAFFD,0.537 ± 0.024
24,FCLSVVELRGLM,0.672 ± 0.049
25,FCRTSGSVGDHV,0.721 ± 0.017
26,FCYVEDLSVSVD,0.611 ± 0.0068

row,Sequence,protein stability index
1,FDNPFQATTATK,0.823 ± 0.16
2,FDVYIKVRGGDI,0.64 ± 0.024
3,FEDIPSMEYRSI,0.702 ± 0.05
4,FEHFKCRRRPVI,0.723 ± 0.044
5,FETGPGSCTACA,0.68 ± 0.0099
6,FFFECPCWLGVF,0.542 ± 0.019
7,FFGGAGVTEGLG,0.683 ± 0.043
8,FFLLLCSSCFGV,0.583 ± 0.021
9,FFNFVYYFTTPR,0.635 ± 0.019
10,FFPFFLSFSPPF,0.708 ± 0.023
11,FFPLPPSSPPSP,0.7184 ± 0.0069
12,FFPPAHFAPQPA,0.719 ± 0.015
13,FFPPLLSFPPTD,0.7189 ± 0.0044
14,FFPRVLRLRYPS,0.754 ± 0.085
15,FFPSFVLSFPCL,0.641 ± 0.069
16,FFSPFSPALYTS,0.756 ± 0.014
17,FFVLGRGVCLGA,0.649 ± 0.066
18,FFYGLHSHCAIP,0.717 ± 0.081
19,FGAGLTACPVSV,0.517 ± 0.036
20,FGAHVGWHEASP,0.705 ± 0.018
21,FGDPRRTDPLRL,0.631 ± 0.04
22,FGFWCGWFAALP,0.689 ± 0.0094
23,FGGRGRVASRLV,0.763 ± 0.086
24,FGIDVRPRPSQS,0.698 ± 0.12
25,FGRWVVVYRGLD,0.625 ± 0.037
26,FGSPFPASRFTT,0.752 ± 0.082

row,Sequence,protein stability index
1,FGVDGVGVVVGY,0.669 ± 0.0086
2,FGVGGRWVVPGA,0.733 ± 0.016
3,FGVRTLTFISRT,0.637 ± 0.0081
4,FGWFDIKDSTNS,0.7177 ± 0.0048
5,FHARVEKQFMVM,0.489 ± 0.031
6,FHMPRSSPFLTG,0.74 ± 0.054
7,FIGWFSLMSCSV,0.604 ± 0.026
8,FISPSPLPPYSP,0.665 ± 0.059
9,FITLHGLLSRPC,0.626 ± 0.077
10,FITRPYKNIKNR,0.702 ± 0.031
11,FKRPQFFSAFFP,0.612 ± 0.011
12,FKVARGVHCGEG,0.6662 ± 0.0037
13,FLFCSYHSPLSF,0.7 ± 0.036
14,FLFLSFLSSSPS,0.745 ± 0.0088
15,FLFLYIPFSPPR,0.62 ± 0.02
16,FLFSDLVCSSVF,0.704 ± 0.027
17,FLGAELRRLGSL,0.703 ± 0.071
18,FLHLGGEWGVEG,0.683 ± 0.041
19,FLHLTSSTPLSR,0.794 ± 0.17
20,FLHPPPSALVLP,0.726 ± 0.03
21,FLHSERTLCFIS,0.537 ± 0.052
22,FLLFLSSAPPAT,0.655 ± 0.0084
23,FLLHHVSRSPSA,0.692 ± 0.014
24,FLLPRFDSAFPL,0.684 ± 0.031
25,FLLVLPLSGLIV,0.528 ± 0.016
26,FLPHPSPDPLPP,0.588 ± 0.12

row,Sequence,protein stability index
1,FLPPYSLPTPPF,0.699 ± 0.03
2,FLRLGLLQTFSP,0.677 ± 0.04
3,FLRPALACDVYN,0.737 ± 0.05
4,FLSLSLFPFSSL,0.698 ± 0.024
5,FLSRLGLVGWWG,0.643 ± 0.036
6,FLSTGIGKGVFL,0.694 ± 0.035
7,FLTAGRLYDGRV,0.6489 ± 0.0032
8,FLVEPSGRSATW,0.741 ± 0.16
9,FLWAPRWFCVGH,0.651 ± 0.041
10,FMFELSPVDEWA,0.791 ± 0.043
11,FMVIRVGGWGVL,0.646 ± 0.094
12,FPAPFLRVSPLW,0.644 ± 0.048
13,FPASLDAVTRPP,0.722 ± 0.011
14,FPASPQAPPPLP,0.65377 ± 0.00019
15,FPATLPPSYSLI,0.643 ± 0.017
16,FPCRSPKLYPPL,0.655 ± 0.011
17,FPDTRSLPLPPG,0.687 ± 0.011
18,FPFSDFVFLFCF,0.57 ± 0.011
19,FPLPLCHSPAPP,0.606 ± 0.027
20,FPLPPLPPVPPP,0.632 ± 0.059
21,FPPPLPLSPPPP,0.746 ± 0.085
22,FPRLYHPNIKLP,0.716 ± 0.13
23,FPVTAPPRPFLF,0.639 ± 0.014
24,FPWFYPNHLEVP,0.698 ± 0.063
25,FQAPGGEIMSPS,0.647 ± 0.012
26,FQPPARATFLPV,0.668 ± 0.031

row,Sequence,protein stability index
1,FRCGLDFRWYVI,0.62 ± 0.012
2,FRCSLLGGYTLE,0.737 ± 0.092
3,FRFSSTGRSFVS,0.6917 ± 0.0029
4,FRGPRSFRGVVW,0.757 ± 0.08
5,FRICSLTLSLSI,0.5517 ± 0.0048
6,FRISWLRVKGRG,0.676 ± 0.035
7,FRKTDYMVHNGI,0.664 ± 0.015
8,FRLNSYQNGSRV,0.682 ± 0.043
9,FRLQQGCSRHVG,0.671 ± 0.015
10,FRPCLRCLVSPF,0.6358 ± 0.0063
11,FRPLWLPSGSAC,0.611 ± 0.019
12,FRRCLCSLSLTS,0.631 ± 0.012
13,FRRLCRPVWSAR,0.6749 ± 0.0038
14,FRYLAVSPFGGL,0.749 ± 0.057
15,FSAPLPPARSPS,0.798 ± 0.11
16,FSAPPPPSPPLS,0.721 ± 0.053
17,FSASSSLSPFPL,0.707 ± 0.052
18,FSFCQLSLASFP,0.571 ± 0.01
19,FSFPAPRGLLWV,0.547 ± 0.027
20,FSGSSCSSPFCF,0.632 ± 0.033
21,FSKTYTIMLITI,0.538 ± 0.0077
22,FSLLCGPGLRGF,0.72 ± 0.02
23,FSPGYPMAFSLR,0.74 ± 0.0075
24,FSPLLQSPLLAP,0.692 ± 0.0089
25,FSQLVQPSSFTS,0.7176 ± 0.004
26,FSRGRAVRVRRT,0.728 ± 0.21

row,Sequence,protein stability index
1,FSSLFLSLLCPP,0.727 ± 0.073
2,FSSYDLISFVLV,0.538 ± 0.0099
3,FTISHWFSGDGE,0.705 ± 0.015
4,FTPLFSPVLLLP,0.72 ± 0.12
5,FTSPNGVRVCFH,0.843 ± 0.02
6,FVAGVGPLWGRR,0.661 ± 0.031
7,FVALCHCVRISR,0.697 ± 0.013
8,FVGCVNIFLSWG,0.51 ± 0.019
9,FVGSSFELRLPG,0.692 ± 0.057
10,FVGWVAMGGSVV,0.731 ± 0.024
11,FVLPSPRPPSMT,0.704 ± 0.0078
12,FVVGTFGHRRGR,0.694 ± 0.019
13,FWEGETVPTSEP,0.788 ± 0.045
14,FWEIRSGSNHRH,0.713 ± 0.028
15,FWGVAPSDRVSK,0.697 ± 0.0078
16,FWVGGGVFGVRV,0.747 ± 0.015
17,FYAGELSCRHQT,0.694 ± 0.025
18,FYGLPSVVCGWF,0.671 ± 0.025
19,GAFKSRAGGGSG,0.621 ± 0.093
20,GAGGARRLAVGQ,0.655 ± 0.014
21,GAGGVWVRAWGP,0.768 ± 0.095
22,GAGLLRLWEVGG,0.733 ± 0.049
23,GAIRLSLMLLPQ,0.686 ± 0.042
24,GALVGFPAFFLL,0.654 ± 0.011
25,GALVLWTGCTYS,0.726 ± 0.0033
